Measurements taken from publication PMC8529511.

The substances below were run against Trypsin (UniProt P00761) (assay: enzyme inhibition assay).

| Ki | Substance |
| --- | --- |
| 0.102 nM | C12-EETI-II (lauroyl, C12:0, fatty acylated EETI-II) (peptide) |
| 0.1 nM | C14-EETI-II (myristoyl, C14:0, fatty acylated EETI-II) (peptide) |
| 0.132 nM | C16-EETI-II (palmitoyl, C16:0, fatty acylated EETI-II) (peptide) |
| 0.125 nM | C18-EETI-II (stearoyl, C18:0, fatty acylated EETI-II; octadecanedioic acid conjugate) (peptide) |
